Sequences and labels used below:
T1: full-length hCDCP1 with N-terminal c-Myc tag (expression vector GS01), on Ba/F3-hCDCP1 cells or … (human, UniProt Q9H5V8 30-836)
T1 construct: also called human CDCP1; hCDCP1 forced expression cells
T1 sequence: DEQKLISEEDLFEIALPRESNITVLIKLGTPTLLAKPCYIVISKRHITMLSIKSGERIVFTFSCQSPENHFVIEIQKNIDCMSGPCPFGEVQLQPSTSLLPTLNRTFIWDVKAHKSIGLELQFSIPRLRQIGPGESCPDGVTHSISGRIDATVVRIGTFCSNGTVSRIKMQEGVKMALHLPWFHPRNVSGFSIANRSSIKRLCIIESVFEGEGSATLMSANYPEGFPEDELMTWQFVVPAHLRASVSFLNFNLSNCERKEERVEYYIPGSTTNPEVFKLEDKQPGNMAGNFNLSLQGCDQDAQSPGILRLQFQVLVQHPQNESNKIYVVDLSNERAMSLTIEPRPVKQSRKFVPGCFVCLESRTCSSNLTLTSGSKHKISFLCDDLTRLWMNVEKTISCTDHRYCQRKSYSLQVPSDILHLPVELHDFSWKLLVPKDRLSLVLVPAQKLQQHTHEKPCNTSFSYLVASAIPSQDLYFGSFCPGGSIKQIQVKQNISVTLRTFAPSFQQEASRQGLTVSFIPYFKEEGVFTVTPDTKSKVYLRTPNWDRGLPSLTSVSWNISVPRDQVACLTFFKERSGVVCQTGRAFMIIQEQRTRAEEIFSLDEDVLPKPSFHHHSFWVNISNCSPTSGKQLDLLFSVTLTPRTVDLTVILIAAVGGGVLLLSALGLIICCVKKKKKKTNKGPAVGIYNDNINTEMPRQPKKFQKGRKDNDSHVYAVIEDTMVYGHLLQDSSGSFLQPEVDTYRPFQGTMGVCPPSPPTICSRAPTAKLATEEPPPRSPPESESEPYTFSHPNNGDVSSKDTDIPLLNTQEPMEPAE

B1: h12A041VH1/VL (antibody, human IgG1, kappa, V domains shown)
VH: QVTLRESGPALVKPTQTLTLTCTFSGFSLSTSGMGVSWIRQPPGKALEWLAHIYWDDDKRYNPSLKSRLTISKDTSKNQVVLTMTNMDPVDTATYYCARSGSYYGSSLDSWGQGTTVTVSS
VL: DIVMTQSPLSLPVTPGEPASISCRSSQSIVHSSGNTYLEWYLQKPGQSPQLLIYKVSNRFSGVPDRFSGSGSGTDFTLKISRVEAEDVGVYYCFQGSHVPWTFGGGTKVEIKR
notes: humanized antibody, human IgG1/kappa constant regions; also called h12A041VH1/VL-biotin (biotinylated form)
B2: h12A041VH1A/VL (antibody, human IgG1, kappa, V domains shown)
VH: B1 VH with S32F
VL: B1 VL
notes: humanized antibody, human IgG1/kappa constant regions; also called h12A041VH1A/VL-biotin (biotinylated form)
B3: h12A041VH1A/VLB (antibody, human IgG1, kappa, V domains shown)
VH: B1 VH with S32F
VL: B1 VL with S28N, S33D
notes: humanized antibody, human IgG1/kappa constant regions
B4: h12A041VH2A/VLA (antibody, human IgG1, kappa, V domains shown)
VH: B1 VH with S32F, A46G
VL: B1 VL with H31Y
notes: as for B3
B5: h12A041VH1/VLB (antibody, human IgG1, kappa, V domains shown)
VH: B1 VH
VL: B1 VL with S28N, S33D
notes: humanized antibody, human IgG1/kappa constant regions; also called h12A041VH1/VLB-biotin (biotinylated form)
B6: h12A041VH2A/VL (antibody, human IgG1, kappa, V domains shown)
VH: B1 VH with S32F, A46G
VL: B1 VL
notes: as for B3
B7: h12A041VH2/VL (antibody, human IgG1, kappa, V domains shown)
VH: B1 VH with A46G
VL: B1 VL
notes: as for B3
B8: h12A041VH1/VLA (antibody, human IgG1, kappa, V domains shown)
VH: B1 VH
VL: B1 VL with H31Y
notes: humanized antibody, human IgG1/kappa constant regions; also called h12A041VH1/VLA-biotin (biotinylated form); h12A041VH1NLA-biotin
B9: h12A041VH2A/VLB (antibody, human IgG1, kappa, V domains shown)
VH: B1 VH with S32F, A46G
VL: B1 VL with S28N, S33D
notes: as for B3
B10: h12A041VH2/VLA (antibody, human IgG1, kappa, V domains shown)
VH: B1 VH with A46G
VL: B1 VL with H31Y
notes: as for B3
B11: h12A041VH1A/VLA (antibody, human IgG1, kappa, V domains shown)
VH: B1 VH with S32F
VL: B1 VL with H31Y
notes: as for B3
B12: h12A041VH2/VLB (antibody, human IgG1, kappa, V domains shown)
VH: B1 VH with A46G
VL: B1 VL with S28N, S33D
notes: as for B3
B13: mh14A025HCv15/LCori (antibody, human IgG1, kappa, V domains shown)
VH: EVQLQESGAELVRPGALVKLSCKASGFNIKDYYMHWVKQRPEQGLEWIGWIDPENLNTIYDPKFQGKASITADTSSNTAYLQLSSLTSEDTAVYYCGGLLYAMDYWGQGTSVTVSS
VL: DIQMTQTTSSLSASLGDRVTISCRASQDISNYLNWYQQKPDGTVKLLIYFTSRLHSGVPSRFSGSGSGTDYSLTISNLEQEDIATYFCQQGNTLPRTFGGGTKLEIRR
notes: mouse-human chimeric antibody, human IgG1/kappa constant regions
B14: mh14A025HCv19/LCori (antibody, human IgG1, kappa, V domains shown)
VH: B13 VH with N55R, L56G
VL: B13 VL
notes: as for B13
B15: mh14A025HCv17/LCori (antibody, human IgG1, kappa, V domains shown)
VH: B13 VH with L56M
VL: B13 VL
notes: as for B13
B16: mh14A025HCv21/LCori (antibody, human IgG1, kappa, V domains shown)
VH: B13 VH with N55T, L56G
VL: B13 VL
notes: as for B13
B17: mh14A025HCv24/LCori (antibody, human IgG1, kappa, V domains shown)
VH: B13 VH with N55W, L56G
VL: B13 VL
notes: as for B13
B18: mh14A043HCv1/LCori (antibody, human IgG1, kappa, V domains shown)
VH: B13 VH with H35N, N55S, L56G, G97Y, L99S, L100S, A102R, M103F, D104T, S111L
VL: QIVLIQSPALMSASPGEKVTMTCSASSSVSYMYWYQQKPRSSPKPWIYLTSNLASGVPARFSGSGSGTSYSLTISSMEAEDAATYYCQQWSSNPFTFGSGTKLEIKR
notes: as for B13
B19: mh14A043HCv2/LCv1 (antibody, human IgG1, kappa, V domains shown)
VH: B13 VH with H35N, L56A, G97Y, L99S, L100S, A102R, M103F, D104T, S111L
VL: B18 VL with M32L
notes: as for B13
B20: mh14A043HCv2/LCori (antibody, human IgG1, kappa, V domains shown)
VH: B13 VH with H35N, L56A, G97Y, L99S, L100S, A102R, M103F, D104T, S111L
VL: B18 VL
notes: as for B13
B21: mh14A043HCori/LCv1 (antibody, human IgG1, kappa, V domains shown)
VH: B13 VH with H35N, L56G, G97Y, L99S, L100S, A102R, M103F, D104T, S111L
VL: B18 VL with M32L
notes: as for B13
B22: mh14A043HCv1/LCv1 (antibody, human IgG1, kappa, V domains shown)
VH: B13 VH with H35N, N55S, L56G, G97Y, L99S, L100S, A102R, M103F, D104T, S111L
VL: B18 VL with M32L
notes: as for B13
B23: mh14A063HCori/LCv1 (antibody, human IgG1, kappa, V domains shown)
VH: EVQLQESGGGLVQPGGSLKLSCAASGFTFSSYTMSWVRQTPEKRLEWVAYISNGGGSTYYPDTVKGRFTISRDNAKNTLYLQMSSLKSEDTAMYYCARYDLGFAYWGQGTLVTVSS
VL: NIVLTQSPASLAVSLGQRATISCRASESVDSYGNSFLHWYQQKPGQPPKLLIFLASNLESGVPARFSGSGSRTDFTLTIDPVEADDAATYYCQQNNEDPWTFGGGTNLEIKR
notes: as for B13
B24: mh14A063HCv1/LCori (antibody, human IgG1, kappa, V domains shown)
VH: B23 VH with N53S
VL: B23 VL with L37M
notes: as for B13
B25: mh14A063HCv1/LCv1 (antibody, human IgG1, kappa, V domains shown)
VH: B23 VH with N53S
VL: B23 VL
notes: as for B13
B26: mh14A063HCv2/LCori (antibody, human IgG1, kappa, V domains shown)
VH: B23 VH with G54A
VL: B23 VL with L37M
notes: as for B13
B27: mh14A063HCv2/LCv1 (antibody, human IgG1, kappa, V domains shown)
VH: B23 VH with G54A
VL: B23 VL
notes: as for B13
B28: h14A043VH1/VL1 (antibody, human IgG1, kappa)
heavy: not shown
light: EIVLTQSPATLSLSPGERATLSCSASSSVSYLYWYQQKPGQAPRPWIYLTSNLASGVPARFSGSGSGTDFTLTISSLEPEDFAVYYCQQWSSNPFTFGGGTKVEIKRTVAAPSVFIFPPSDEQLKSGTASVVCLLNNFYPREAKVQWKVDNALQSGNSQESVTEQDSKDSTYSLSSTLTLSKADYEKHKVYACEVTHQGLSSPVTKSFNRGEC
notes: humanized antibody, human IgG1/kappa constant regions; also called h14A043VH1/VL1-biotin (biotinylated form)
B29: h14A043VH1/VL3 (antibody, human IgG1, kappa)
heavy: not shown
light: B28 light with T5I
notes: humanized antibody, human IgG1/kappa constant regions; also called h14A043VH1/VL3-biotin (biotinylated form)
B30: h14A043VH1/VL2 (antibody, human IgG1, kappa, V domains shown)
VH: QVQLVQSGAEVKKPGSSVKVSCKASGFNIKDYYMNWVRQAPGQGLEWIGWIDPENANTIYDPKFQGRVTITADESTSTAYMELSSLRSEDTAVYYCYGSSYRFTYWGQGTLVTVSS
VL: EIVLTQSPATLSLSPGERATLSCSASSSVSYLYWYQQKPGQAPRPWIYLTSNLASGVPARFSGSGSGTDYTLTISSLEPEDFAVYYCQQWSSNPFTFGGGTKVEIKR
notes: humanized antibody, human IgG1/kappa constant regions; also called h14A043VH1/VL2-biotin (biotinylated form)
B31: h14A043VH2/VL1 (antibody, human IgG1, kappa)
heavy: not shown
light: B28 light
notes: humanized antibody, human IgG1/kappa constant regions; also called h14A043VH2/VL1-biotin (biotinylated form)

Substitutions are numbered along the chain they refer to.

The test concerns the target T1, full-length hCDCP1 with N-terminal …. In words: flow cytometry on Ba/F3-hCDCP1 cells. A general note: Flow cytometry measures light scatter and fluorescence of single cells or particles in a stream.
As for B1, the binding result is “binds”.

B2: the binding result was “binds”. Then B3, with “binds”; and B4, with “binds”. B5: the binding result was “binds”. Then B6, with “binds”; and B7, with “binds”; and B8, with “binds”. Then B9, with “binds”. Take B10: the binding result is recorded as “binds”. Regarding B11, the binding result is “binds”. Then B12, with “binds”; and B13, with “binds”; and B14, with “binds”. Then B15, with “binds”. In the case of B16 it was “binds”; in that of B17, “binds”. For the molecule B18, the binding result is “binds”. In the case of B19 it was “binds”; in that of B20, “binds”; in that of B21, “binds”. Then B22, with “binds”. As to B23, the binding result is “binds”. Then B24, with “binds”. Then B25, with “binds”.

As for B26, the binding result is on record as “binds”.

In the case of B27, the binding result was “binds”. In the case of B28 it was “binds”; in that of B29, “binds”; in that of B30, “binds”. As for B31, the binding result is given as “binds”.

The record behind these values is patent publication US20230050380A1 (CHIOME BIOSCIENCE, published 2023).
